Consider eight molecules from patent US20120277143A1 (Janssen / Centocor, published 2012).

The target in experiment [1] is T1, human IL13 (human, UniProt P35225 35-146, biotinylated in the SPR assays (sites not given)). The experiment is described as follows: cell-based or functional assay.
Experiment [2] concerns the target cyno IL13 (cynomolgus monkey, UniProt Q0PW92 21-132). The experiment can be described thus: cell-based or functional assay.
Experiment [3] has as its target T1, human IL13. The experiment is described as follows: SPR BIAcore, biotin-IL13 on SA chip, global fit. The procedure: Recombinant human IL13 (Peprotech) was minimally biotinylated on ice using sulfo-NHS-LCLC-Biotin and desalted into the experimental running buffer containing 10 mM HEPES, 150 mM NaCl, pH 7.4, 0.01% Tween-20, and 0.1 mg/mL BSA. Biotinylated IL13 was captured at three different surface densities (from about 150, 50, and 25 RU) onto three different BIAcore SA (streptavidin) sensor chips. Each binding protein sample was tested at 40 nM as the highest concentration in a 3-fold dilution series over the three different density IL13 surfaces. The dissociation phase for the highest concentration of the binding protein sample was monitored for one hour. The response data from each of the different density surfaces was globally fitted in order to extract estimates of the kinetic and affinity constants which are provided in Table 7 below.

The target of experiment [4] is T2, human IL13 R130Q (human, UniProt P35225 35-146, biotinylated (sites not given)).
T2 construct: Peprotech; also called IL13R13Q; R111Q
The experiment is described as follows: Luminex competition, 80 pM biotin-IL13 R130Q binding to IL13Ra2-Fc beads. The method, then: (§1) Binding protein inhibition of IL13 binding to Rα2 was assessed using IL13Rα2-Fc (R&D Systems) conjugated to carboxylated Luminex microspheres according to the manufacturer's protocol. For biotinylation of IL13, recombinant human IL13 R130Q (Peprotech) was biotinylated at a 4:1 ratio using EZ-Link NHS-LC-Biotin (Pierce, #21336) for 2 hours at RT. The protein was dialyzed in PBS overnight to remove excess biotinylation reagent. For neutralization experiments, 5000 IL13 Rα2-Fc conjugated beads in 50 μl were added to each well of a 96-well filter plate (Millipore). 50 μl of biotinylated human IL13 at 1 ng/ml (80 pM) was mixed with an appropriate dilution of binding protein in Luminex Assay Buffer (PBS, 1% BSA, pH 7.4). The plate was incubated for 1 hour at RT in the dark on a plate shaker, set to shake vigorously to avoid bead aggregation. The plate was washed 3 times with 150 μl of wash buffer (PBS, 1% BSA, pH 7.4, 0.05% Tween-20) using a vacuum manifold followed by the addition of 50 μl of Streptavidin PE at 25 μg/ml and incubated at RT for 20 minutes. The plates were washed again and 100 μl of sheath fluid was added and the plate was placed on the shaker for 1 minute. Plates were read using a Luminex® 100 system; data were plotted as a function of binding protein concentration. IC₅₀ values were determined by fitting the data to the equation for sigmoidal dose response using PRIZM software (GraphPAD PRIZM).

The target in experiment [5] is T1, human IL13. The experiment is described as follows: SPR ProteOn, biotin-hIL13 on streptavidin, 1:1 global fit. The method, then:
Complete kinetic data describing binding of various engineered binding protein molecules to human IL13 was measured using a method similar to that described above for the single point affinity analysis. Briefly, streptavidin (Pierce) was immobilized to similar levels (˜1800 RUs) on all six channels of a ProteOn GLC chip via amine coupling (pH 5.0). Biotinylated hIL13 was captured at different surface densities (600˜100 RUs) on different channels. Protein binding was tested starting at 40 nM diluted in a 3-fold concentration series over the different density IL13 surfaces; a buffer sample was injected to monitor the baseline stability. Dissociation phases for all concentrations of each binding protein sample were monitored for one hour at a flow rate of 100 μl/min. Response data for all concentration series from the different density surfaces were globally fit to a 1:1 simple langmuir binding model to extract values of the kinetic (kₒₙ, koff) and affinity (KD) constants provided in Table 16.

Experiment [6] addresses T1, human IL13. The experiment can be described thus: cell-based or functional assay. The source holds these as a separate data set.
For experiment [7], the target named is T3, human IL4 (human, UniProt P05112 25-153, biotinylated in the SPR and competition assays (sites not given)).
T3 sequence: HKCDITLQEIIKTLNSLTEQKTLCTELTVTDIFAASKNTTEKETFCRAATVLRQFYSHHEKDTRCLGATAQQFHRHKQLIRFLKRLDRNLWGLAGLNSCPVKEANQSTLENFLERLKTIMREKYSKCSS
The experiment is described as follows: cell-based or functional assay.

The target in experiment [8] is T3, human IL4. The experiment can be described thus: Affinity to IL4; method not re-described.
Experiment [9] has as its target T1, human IL13. The experiment can be described thus: Affinity to IL13; method not re-described.
For experiment [10], the target named is T3, human IL4. The experiment can be described thus: IL4R binding inhibition; repeats Table 17. The method, then:
AR protein inhibition of IL4 binding to IL4 RA was assessed using IL4 RA-Fc (R&D Systems), comprising the Gly24-His232 which represents the ECD (SEQ ID NO: 5) fused to a human IgGl-Fc and therefor a disulfide linked homodimer. The protein was conjugated to carboxylated Luminex microspheres according to the manufacturer's protocol. For neutralization experiments, 5000 IL4RA-Fc conjugated beads in 50 μl were added to each well of a 96-well filter plate (Millipore). Biotinylated human IL4 was mixed with an appropriate dilution of AR protein in Luminex Assay Buffer (PBS, 1% BSA, pH 7.4) to give a final concentration of 67 pM IL4. The plate was incubated for 1 hour at RT in the dark on a plate shaker, set to shake vigorously to avoid bead aggregation. The plate was washed twice with 150 μl of wash buffer (PBS, 0.1% BSA, pH 7.4, 0.05% Tween-20) using a vacuum manifold followed by the addition of 50 μl of Streptavidin PE at 25 μg/ml and incubated at RT for 20 minutes. The plates were washed again and 150 μl of sheath fluid was added and the plate was placed on the shaker for 5 minute. Plates were read using a Luminex® 100 system; data were plotted as a function of AR protein concentration. IC₅₀ values were determined by fitting the data to the equation for sigmoidal dose response using PRISM software (GraphPAD PRISM) (Table 6).

Experiment [11] deals with T2, human IL13 R130Q. The experiment can be described thus: IL13Ra2 binding inhibition; repeats Table 17. The method, then: as §1
For experiment [12], the target named is T3, human IL4. The experiment is described as follows: IL4RA binding inhibition; assay not re-described (Luminex of Example 2).
Experiment [13] deals with T2, human IL13 R130Q. The experiment can be described thus: IL13Ra2 binding inhibition; assay not re-described (Luminex of Example 2). The method, then:
as §1

The term Kd denotes the free concentration of one partner at which half of the binding sites on the other are occupied at equilibrium, for simple one-to-one binding. Higher therefore signals lower affinity. As usually defined, the koff is a measure of how fast the partners let go of each other. The term kon denotes the second-order rate constant of association. High values mean faster complex formation, low ones slower complex formation. A word on the IC50: it is the concentration needed to halve the response being measured. A low value points to greater potency in that assay.

cyno IL13, sequence (Q0PW92 entry or part of it): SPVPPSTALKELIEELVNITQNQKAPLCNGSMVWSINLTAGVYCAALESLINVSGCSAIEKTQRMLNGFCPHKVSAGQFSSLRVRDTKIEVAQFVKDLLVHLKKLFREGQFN
T1 sequence (P35225 other isoform, or with tags, fused parts or gaps limits assumed): as the sequence (Q0PW92 entry or part of it) above, with S1G, K10R, V42M, N67S, R83H, V100L, Q110R counted along it
T2 sequence (P35225 35-146 limits assumed, stated change not applied): as the sequence (Q0PW92 entry or part of it) above, with S1G, K10R, V42M, N67S, R83H, V100L counted along it

B1: 7C6 (designed binder)
chain: DLGKKLLEAARAGQDDEVRILMANGADVNAMDKYGSTPLHLAARSGHLEIVEVLLKHGADVNATDFIGDTPLHLAAYHGHLEIVEVLLKHGADVNAEDITGETPLHLAAESGHLEIVEVLLKHGADVNAQDKFGKTAFDISIDNGNEDLAEILQKLN
notes: N-Cap-(AR)3-C-Cap
With B1, in experiment [1], the “STAT6 Phospho IC50” value amounted to 2.7 pM and the “TARC expression IC50” value was 159 pM. Moreover, the “Cyno IL13 STAT6 IC50” value in [2] came to 48 pM. Further, in experiment [3], the Kd came out at 0.0464 nM, the dissociation rate constant (koff) was found to be 0.000224 s⁻¹ and the kon amounted to 4.82e+06 M⁻¹ s⁻¹. In experiment [4], this molecule returned an IC50 of 0.0106 nM.

B2: 9E11 (designed binder)
chain: DLGKKLLEAARAGQDDEVRILMANGADVNASDIYGSTPLHLAARHGHLEIVEVLLKNGADVNANDMIGDTPLHLAAYHGHLEIVEVLLKHGADVNASDITGETPLHLAAHNGHLEIVEVLLKYGADVNAQDKFGKTAFDISIDNGNEDLAEILQKLN
notes: N-Cap-(AR)3-C-Cap
As to B2, in experiment [1], the “STAT6 Phospho IC50” value turned out to be 0.9 pM and the “TARC expression IC50” value was 109 pM. Also, the “Cyno IL13 STAT6 IC50” value in experiment [2] was 33.4 pM. In experiment [3], this molecule gave a Kd of 0.021 nM, a koff of 1.3e-05 s⁻¹ and an on-rate constant (kon) of 640000 M⁻¹ s⁻¹. The molecule also showed a half-inhibitory concentration (IC50) in experiment [4] of 0.0058 nM.

B3: 6G11 (designed binder)
chain: DLGKKLLEAARAGQDDEVRILMANGADVNAEDILGITPLHLAAHHGHLEIVEVLLKHGADVNANDFAGYTPLHLAAVYGHLEIVEVLLKYGADVNATDAWGETPLHLAAYTGHLEIVEVLLKHDADVNAQDKFGKTAFDISIDNGNEDLAEILQKLN
notes: N-Cap-(AR)3-C-Cap
For B3, in experiment [1], the “STAT6 Phospho IC50” value amounted to 19.8 pM and the “TARC expression IC50” value stood at 282 pM. Also, in experiment [2], the “Cyno IL13 STAT6 IC50” value worked out at 1210 pM. Moreover, in experiment [3], the affinity, expressed as Kd, was 0.106 nM; the koff amounted to 8e-05 s⁻¹; the kon is 754000 M⁻¹ s⁻¹. Further, the half-maximal inhibitory concentration (IC50) in experiment [4] was found to be 0.0101 nM.

B4: 9F8 (designed binder)
chain: DLGKKLLEAARAGQDDEVRILMANGADVNASDIFGSTPLHLAARHGHLEIVEVLLKYGADVNAMDFIGDTPLHLAAYRGHLEIVEVLLKYGVDVNADDHGDTPLHLAASMGHLEIVEVLLKNGADVNAQDKFGKTAFDISIDNGNEDLAEILQKLN
notes: ankyrin repeat protein
B4: the “STAT6 Phospho IC50” value in experiment [1] amounted to 55 pM. In experiment [3], this molecule displayed a Kd of 0.11 nM, a koff of 9.9e-05 s⁻¹ and a kon of 930000 M⁻¹ s⁻¹. Also, the affinity in experiment [5], expressed as Kd, was 1.64 pM.

B5: 10A6 (designed binder)
chain: DLGKKLLEAARAGQDDEVRILMANGADVNAIDHFDSTPLHLAARHGHLEIVEVLLKNGADVNADDFLGDTPLHLAAYHGHLDIVEVLLKHGADVNAQDKFGKTAFDISIDNGNEDLAEILQKLN
notes: N-Cap-(AR)2-C-Cap, only 2 ARs
Turning to B5, in experiment [1], the “STAT6 Phospho IC50” value worked out at 8 pM and the “TARC expression IC50” value turned out to be 123 pM. Besides, the “Cyno IL13 STAT6 IC50” value in experiment [2] was found to be 1930 pM. In addition, in experiment [3], the Kd was 0.0729 nM, the off-rate (koff) came out at 0.000201 s⁻¹ and the kon was found to be 2.76e+06 M⁻¹ s⁻¹. Besides, in experiment [4], the IC50 was 0.0075 nM.

B6: 7D7 (designed binder)
chain: DLGKKLLEAARAGQDDEVRILMANGADVNATDTYGSTPLHLAARHCHQEIVEVLLKHGADVNANDFIGDTPLHLAAWHGHLEIVEVLLKNGADVNAMDVTGETPLHLAAYHGHLDIVEVLLKNGADVNAQDKFGKTAFDISIDNGNEDLAEILQKLN
notes: N-Cap-(AR)3-C-Cap
In the case of B6, in experiment [1], the “STAT6 Phospho IC50” value is 10.5 pM and the “TARC expression IC50” value amounted to 354 pM. The “Cyno IL13 STAT6 IC50” value in experiment [2] was found to be 162 pM. In experiment [3], this molecule came in with a Kd of 0.204 nM and an off-rate constant (koff) of 6.25e-05 s⁻¹. In experiment [4], the IC50 came to 0.058 nM.

B7: C06_28E5_V1_C01_6G9_V1 (designed binder)
chain: DLGKKLLEAARAGQDDEVRILMANGADVNAADDSGITPLHLAAEDGHLEIVEVLLKAGADVNAQDNLGDTPLHLAAWTGHLEIVEVLLKAGADVNAYDISGITPLHLAAFYGHLEIVEVLLKHGADVNAQDKFGKTAFDISIDNGNEDLAEILQKLNGGGGSGGGGSGGGGSGGGGSDLDKKLLEAARAGQDDEVRILMANGADVNARDSYGSTPLHLAAREGHLEIVEVLLKYGADVNAADFIGDTPLHLAAYRGHLEIVEVLLKYGADVNASDITGETPLHLAAQIGHLEIVEVLLKHGADVNAQDKFGKTAFDISIDNGNEDLAEILQKLN
notes: bispecific IL4/IL13 ankyrin repeat protein with (GGGGS)4 linker; also called bispecific AR protein
As to B7, the “A549/TARC IL13 IC50” value in [6] turned out to be 84 pM. In addition, the “HEK Stat6 human IL13 IC50” value in experiment [6] was determined as 19 pM. In addition, the “A549/TARC IL4 IC50” value in [7] was found to be 39 pM. In experiment [7], the “HEK stat6 hIL4 IC50” value is 1.1 pM. The “Ramos Assay IC50” value in [7] came out at 5.4 pM. Also, the equilibrium dissociation constant (Kd) was found to be 0.0217 nM in experiment [8] and 0.0106 nM in experiment [9]. Also, the half-inhibitory concentration (IC50) in experiment [10] was determined as 0.025 nM; in experiment [11], 0.036 nM; in experiment [12], 0.025 nM; in experiment [13] it was 0.036 nM.

B8: 5B9 (designed binder)
chain: DLGKKLLEAARAGQDDEVRILMANGADVNATDVFGSTPLHLAARHGHLEIVEVLLKHGADVNATDFIGDTPLHLAAYHGHLEIVEVLLKHGADVNAKNGETPLHLAAYHGHPDIVEVLLKHGADVNAQDKFGKTAFDISIDNGNEDLAEILQKLN
notes: N-Cap-(AR)3-C-Cap
Turning to B8, in experiment [1], the “STAT6 Phospho IC50” value is 16.5 pM and the “TARC expression IC50” value stood at 372 pM. Also, the “Cyno IL13 STAT6 IC50” value in [2] was 654 pM. For the same molecule, in experiment [3], the Kd was 0.169 nM, the off-rate (koff) amounted to 0.000179 s⁻¹ and the kon came out at 1.06e+06 M⁻¹ s⁻¹. This molecule returned a 50% inhibitory concentration (IC50) in [4] of 0.0134 nM.
